Reference: article PMC6625990, “Structural underpinnings of Ric8A function as a G-protein α-subunit chaperone and guanine-nucleotide exchange factor” (Nature Communications, 2019)
Like-named read-outs stand apart in the source and are kept apart here. No end group written: not given here.

Columns and labels:
[1] = target: T1, Ric8A1–492 (Bos taurus, UniProt Q5E9J8); experiment: BLI: biotinylated Gα C-terminal peptides (Gαt333–350, Gαs363–380, C1, C2) on streptavidin biosensor binding Ric8A1–492; design: species or system bovine; conditions: Octet RED96, N-terminally biotinylated peptide on streptavidin biosensor, 20 mM Tris, 150 mM KCl, 5% glycerol, 1 mM TCEP, 0.5 mg/ml BSA, pH 8.0, 26 °C, 1:1 binding model, mean ± SD, read-out: association constant (ka)
T1 construct: His6 (N); made in house; host or cells: E. coli BL21(DE3)
T1 sequence (Q5E9J8 1-492): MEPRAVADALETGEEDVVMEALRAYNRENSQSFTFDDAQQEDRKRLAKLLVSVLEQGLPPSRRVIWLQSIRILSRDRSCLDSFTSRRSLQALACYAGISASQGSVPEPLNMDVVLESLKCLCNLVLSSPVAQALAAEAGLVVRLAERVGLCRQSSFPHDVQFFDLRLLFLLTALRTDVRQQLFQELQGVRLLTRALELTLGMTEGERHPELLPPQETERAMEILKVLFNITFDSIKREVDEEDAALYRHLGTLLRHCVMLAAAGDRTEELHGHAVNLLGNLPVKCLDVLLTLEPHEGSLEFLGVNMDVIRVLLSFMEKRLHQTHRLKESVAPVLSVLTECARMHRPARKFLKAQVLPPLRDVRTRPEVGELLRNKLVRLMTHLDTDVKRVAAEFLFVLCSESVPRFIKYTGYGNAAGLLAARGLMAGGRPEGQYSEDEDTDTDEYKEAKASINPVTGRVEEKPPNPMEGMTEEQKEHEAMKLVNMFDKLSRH
Procedure: An Octet RED96 system and streptavidin (SA)-coated biosensors (FortéBio, Menlo Park, CA) were used to measure association and dissociation kinetics for Gα peptides or the full-length Avi-tagged Gαt in relation to Ric8A1–492, Ric8A1–452, and Ric8A1–426. To obtain the Avi-tagged Gαt, Gαt was cloned into modified pET21a vector with the N-terminal His6-tag followed by the Avi tag and TEV cleavage site[59]. The Avi-tagged I340Q/N343H mutant of Gαt was prepared by QuikChange protocol. BL21(DE3) cells for expression of the Avi-tagged Gαt were grown in 2TY media supplemented with biotin (10 mg/liter), induced at OD600 of 0.6 with 50 µM IPTG and further grown overnight at 16 °C. Binding studies were performed in 20 mM Tris, 150 mM KCl, 5% glycerol, 1 mM TCEP, 0.5 mg/ml BSA, pH 8.0. […] For each concentration of Ric8A1–492, dissociation rate constant (kd) values were calculated from the corresponding dissociation phases of the curves. These kd values were used to calculate the association rate constant (ka) values from the association phases for each concentration according to the equation1 ka=kobserved-kd∕Ric8A1-492 The average ka and kd were calculated as means of the individual ka and kd values for all curves. Equilibrium dissociation constant KD was calculated as mean kd/mean ka. […]

[2] = target: T1, Ric8A1–492; experiment: DSF: thermal stabilization of Ric8A1–492 by Gαt C-terminal peptides; type: binding, bovine
Procedure: Fig. 1 Interaction of Ric8A with the C-terminus of Gα. a Thermal denaturation, as determined by differential scanning fluorimetry (DSF), of 8.7 µM Ric8A1–492 in the absence (black) or presence of 50 µM Gαt340–350 (blue) or Gαt333–350 (red). RFU – relative fluorescence units. Average normalized curves are shown. The Tm values (°C) are shown as mean ± SD (n = 3). b Kinetics of association and dissociation for Ric8A1–492 and biotinylated Gαt333–350 coupled to a streptavidin biosensor as determined using BLI. Representative curves are shown.
Stabilities of Ric8A constructs with and without peptide ligands were assessed using differential scanning fluorimetry (DSF), in which an increase in fluorescence of the Sypro Orange dye is measured. Ric8A1–492, Ric8A1–452 and Ric8A1–426 in 20 mM Tris-HCl (pH 7.5) buffer containing 150 mM KCl, 5% glycerol, and 1 mM TCEP with and without peptide were used at a final concentration of 0.5 mg/ml and were supplemented with a 1000-fold dilution of Sypro Orange dye (Invitrogen). Temperature was increased at 1 °C/minute and fluorescence signals were recorded using real-time PCR (C1000 Touch thermal cycler, Bio Rad), with the cycler set to FRET mode and the excitation wavelength set at 450–490 nm and the emission wavelength at 560–580 nm.

[3] = target: T1, Ric8A1–492; experiment: SEC complex formation of Gαt C-terminal fusion proteins with Ric8A1–492; type: binding, bovine; conditions: size-exclusion chromatography elution profiles
Text: The C-terminal 18-mer peptide of Gαi corresponding to Gαt333–350, was previously shown to bind to Ric8A[26]. To identify C-terminal constructs of Gα that are suitable for crystallization with Ric8A, we tested one in which the 11 C-terminal residues of Gαt were fused to the B1 domain of Streptococcal protein G (GB1-Gαt340–350) and a second in which the 24 C-terminal residues of Gαt were fused to MBP (MBP-Gαt327–350). For Ric8A, we used a construct that is truncated at the C-terminus (Ric8A1–492) and that had been reported to retain the full functionality of Ric8A[26].
MBP-Gαt327–350 was purified by Ni-NTA chromatography followed by SEC using a HiLoad 16/600 Superdex 200 pg column equilibrated with 20 mM Tris-HCl (pH 7.5) buffer containing 100 mM NaCl, 1 mM EDTA, and 2 mM TCEP. Ric8A1–492/MBP-Gαt327–350 complexes were prepared by mixing the proteins at a 1:1.5 molar ratio in 5 mM maltose and loading the mixture onto a HiLoad 16/600 Superdex 200 pg column equilibrated with 20 mM Tris-HCl (pH 7.5) buffer containing 150 mM KCl, 5% glycerol, and 1 mM TCEP.
75 KDa Peak 1 Peak 2 75 KDa Peak 1 Peak 2
Supplementary Figure 1. Ric8A1-492 forms complexes with GB1-tagged Gαt340-350 andMBP-taggedGαt333-350. […] (B) Peak fractions in A analyzed by SDS-PAGE. […] (D) Peak fractions in C analyzed by SDS-PAGE. […]

[4] = target: Ric8A; conditions: read-out: KD previously estimated; cited from earlier work
[5] = test system: Ric8A1–452; experiment: DSF: thermal stabilization of Ric8A1–452 by Gαt333–350; type: binding, bovine; conditions: 9.1 µM Ric8A1–452, 50 µM peptide, mean ± SD
Procedure: Stabilities of Ric8A constructs with and without peptide ligands were assessed using differential scanning fluorimetry (DSF), in which an increase in fluorescence of the Sypro Orange dye is measured. […] Temperature was increased at 1 °C/minute and fluorescence signals were recorded using real-time PCR (C1000 Touch thermal cycler, Bio Rad), with the cycler set to FRET mode and the excitation wavelength set at 450–490 nm and the emission wavelength at 560–580 nm.

[6] = target: T1, Ric8A1–492; experiment: BLI: Avi-tagged I340Q/N343H mutant of Gαt binding Ric8A1–492; design: species or system bovine
Procedure: An Octet RED96 system and streptavidin (SA)-coated biosensors (FortéBio, Menlo Park, CA) were used to measure association and dissociation kinetics for Gα peptides or the full-length Avi-tagged Gαt in relation to Ric8A1–492, Ric8A1–452, and Ric8A1–426. To obtain the Avi-tagged Gαt, Gαt was cloned into modified pET21a vector with the N-terminal His6-tag followed by the Avi tag and TEV cleavage site[59]. The Avi-tagged I340Q/N343H mutant of Gαt was prepared by QuikChange protocol. BL21(DE3) cells for expression of the Avi-tagged Gαt were grown in 2TY media supplemented with biotin (10 mg/liter), induced at OD600 of 0.6 with 50 µM IPTG and further grown overnight at 16 °C. Binding studies were performed in 20 mM Tris, 150 mM KCl, 5% glycerol, 1 mM TCEP, 0.5 mg/ml BSA, pH 8.0. All steps were performed at 26 °C, with biosensors stirred into 0.2 ml of sample in each well at 1000 rpm, and at a data acquisition rate of 5.0 Hz. N-terminally biotinylated Gαt333–350, Gαs363–380, C1 peptide and C2 peptide were loaded onto SA sensors at a concentration of 0.05, 0.05, 0.005, and 0.01 mg/ml for 40–90 seconds. Data for association and dissociation phases of the assay were collected as shown in Fig. 1b and Supplementary Figs. 8, 11, 12, and 14. To correct for baseline drift and non-specific binding, reference sensors lacking bound Gα peptide were used in the BLI assays with Ric8A proteins at the highest concentrations. Kinetic data fitting was performed using FortéBio Data Analysis software 10.0. For each concentration of Ric8A1–492, dissociation rate constant (kd) values were calculated from the corresponding dissociation phases of the curves. These kd values were used to calculate the association rate constant (ka) values from the association phases for each concentration according to the equation1 ka=kobserved-kd∕Ric8A1-492 The average ka and kd were calculated as means of the individual ka and kd values for all curves. Equilibrium dissociation constant KD was calculated as mean kd/mean ka. Steady-state data fitting was performed using the GraphPad Prism 7 software with the equation for one site specific binding.
Supplementary Figure 13. (A) Kinetics of association and dissociation of Ric8A1-492 and the Avi-tagged I340Q/N343H mutant of Gαt coupled to a streptavidin biosensor as determined using BLI. Representative experiment is shown. (B) The steady-state binding curve. For experiments performed in […]
(1 picture or pasted object on this page, not shown here)

With DAVTDIIIKENLKDCGLF [Gαt333–350] the kon [1] was 130000 ± 3e+09 M⁻¹ s⁻¹ and the “stabilization effect (Tm shift) on Ric8A1–492” value [2] was ~ 9 °C.
With “GB1-Gαt340–350: 11 C-terminal residues of Gαt fused to the B1 domain of Streptococcal protein G (IKENLKDCGLF; also: fused to GB1 (B1 domain of protein G), end not given here)” the “complex formation with Ric8A1–492 (in words)” value [3] was “formed complexes with Ric8A1–492 at nearly 1:1 stoichiometry”.
In the case of “Gα C-terminus: C-terminal 18-mer peptide of Gαi previously shown to bind to Ric8A (ref 26) (DAVTDVIIKNNLKDCGLF; UniProt P63096 337-354, looked up, fragment)”, the Kd [4] is listed as 12000 nM.
For “Gαt340–350: 11-mer C-terminal peptide of Gαt (IKENLKDCGLF)”, the “Tm of Ric8A1–492 in the presence of peptide” value ([2]; 8.7 µM Ric8A1–492, 50 µM peptide, mean ± SD (n = 3)) was 48.0 ± 0.3 °C, the “mean Tm of Ric8A1-492 + peptide” value ([2]; source data, mean of 3 replicates) was 48 C and the “Tm (C ) of Ric8A1-492 + peptide” value ([2]; source data, replicate 1) was 48.1 C. For the same substance, the “Tm (C ) of Ric8A1-492 + peptide” value ([2]; source data, replicate 2) was 47.69 C, the “Tm (C ) of Ric8A1-492 + peptide” value ([2]; source data, replicate 3) was 48.35 C and the “Tm of Ric8A1–452 in the presence of peptide” value [5] was 55.75 °C.
For “I340Q/N343H: Avi-tagged double I340Q/N343H mutant of full-length Gαt”, the Kd ([6]; BLI steady state, Avi-tagged mutant on streptavidin biosensor, mean ± SD, n = 3 (triplicate), read-out: KD for Ric8A1–492) was 2.3 ± 0.4 µM, the Kd ([6]; BLI, representative experiment (Suppl. Fig. 13B), read-out: KD, steady-state binding curve) was 2.6 µM and the Kd ([6]; Suppl Fig 13B BLI steady state, replicate 1, read-out: KD uM (stady state)) was 1.95 µM. For the same substance, the Kd ([6]; Suppl Fig 13B BLI steady state, replicate 2, read-out: KD uM (stady state)) was 2.3 µM, the Kd ([6]; Suppl Fig 13B BLI steady state, replicate 3, read-out: KD uM (stady state)) was 2.66 µM and the “decrease of affinity for Ric8A1–492” value ([6]; relative to Gαt) was “about 100 fold”.
In the case of “MBP-Gαt327–350: 24 C-terminal residues of Gαt fused to MBP (NVKFVFDAVTDIIIKENLKDCGLF; not fully specified (N-terminus); also: N-terminal fusion to modified MBP via AAAH linker, His6 tag)”, the “complex formation with Ric8A1–492 (in words)” value [3] is reported as “formed complexes with Ric8A1–492 at nearly 1:1 stoichiometry”.
